Patent US20060068465
Substitutions are numbered along the chain they refer to.

B1: synaptic USP (synUSP), full length (protein)
chain: MAPRLQLEKAAWRWAETVRPEEVSQEHIETAYRIWLEPCIRGVCRRNCRGNPNCLVGIGEHIWLGEIDENSFHNIDDPNCERRKKNSFVGLTNLGASCYVNTFLQVWFLNLELRQALYLCPSTCSDYTKGDGIRGGKDYEPQTICEHLQYLFALLQNSNRRYIDPSGFVKALGLDTGQQQDAQESSKLFMSLLEDTLSKQKNPDVRNVVQQQFCGEYAYVTVCSQCGRESKLVSKFYELELNIQGHKQLTDCISEFLKEERLEGDNRYFCENCQSKQNATRKIRLLSLPCTLNLQLMRFVFDRQTGHKKKLNAYIGFSESLDMEPYVEHKGGSFVYELSAVLIHRGVSAYSGHYIAHVKDPQSGDWYKFNDEDIEKMEGKKLQLGIEEDLTEPSKSQTRKPKCGKGTHCSRNAYMLVYRLQTQEKNHTMVQVPAFLQELVDRDNSKFEEWCVEMAEMRRQSVDKGRAKHEEVKELYQRLPAGAEPYEFVSLEWLQKWLDESTPTKPIDNNACLCSHDKLHPDKISIMKRISEYAADIFYSRYGGGPRLTVKALCKDCVVERCRILRLKNQLNEDYKTVNNLLKATMKGSDGFWVGKSSLRSWRQLALEQLDEQDGEAEQSNGKINGSPFSKDESKEEKKEEEEELNFNEDILCPHGELSISENERRLVSQEAWSKLQQYFPKAPEFPSYKECCSQCKILEREGEENEALHKMIAKEQKTSLPNLFQDKNRPCLSNWPEDTDALYIVSHFFLDEWRKFVRKPARSTPVSSVGNAALLCPHGGLMFTFPSLTKEDSKLIALIWPSEWQMIQKLFVVDKVIKITRIEVGDVNPSQTQYISEPNLCPDCREGLLCQQQKDLREYTQATIYVHKVVDNKKVMKDSAPELNVSSSETEEDKEEAKPDGEKDPDFNQSNGGTKRQKTSQQGYVAYQKQVIRRSTRHRKVRGEKALLVSANQTLKELKIQIMHAFSVAPFDQNLSIDGKILNDDCATLGTLGVIPESVILLKADEPIADYAAMDDVMQVCMPEEGFKGTGLLGH
B2: synUSP in which Cys98 was replaced with Ala (protein)
chain: B1 chain with C98A
B3: yeast UBP2 (protein)
chain: MPNEDNELQKAIENHHNQLLNQDKENADRNGSVIEDLPLYGTSINQQSTPGDVDDGKHLLYPDIATNLPLKTSDRLLDDILCDTIFLNSTDPKVMQKGLQSRGILKESMLSYSTFRSSIRPNCLGSLTDQVVFQTKSEYDSISCPKYNKIHVFQAVIFNPSLAEQQISTFDDIVKIPIYHLKVSVKVRQELERLKKHVGVTQFHSLDHLHEYDRVDLSTFDSSDPNLLDYGIYVSDDTNKLILIEIFKPEFNSPEEHESFTADAIKKRYNAMCVKNESLDKSETPSQVDCFYTLFKIFKGPLTRKSKAEPTKTIDSGNLALNTHLNPEWLTSKYGFQASSEIDEETNEIFTEYVPPDMVDYVNDLETRKIRESFVRKCLQLIFWGQLSTSLLAPNSPLKNTKSVKGMSSLQTSFSTLPWFHLLGESRARILLNSNEQTHSPLDAEPHFINLSVSHYYTDRDIIRNYESLSSLDPENIGLYFDALTYIANRKGAYQLIAYCGKQDIIGQEALENALLMFKINPKECNISELNEATLLSIYKYETSNKSQVTSNHLTNLKNALRLLAKYTKSDKLKFYVDHEPYRALSQAYDTLSIDESVDEDIIKTAYSVKINDSPGLKLDCDRALYTIAISKRSLDLFNFLTEECPQFSNYYGPEKLDYQEALKLLQVNENASDETILKIFKQKWFDENVYEPDQFLILRAALTKISIERNSTLITNFLLTGTIDPNSLPPENWPTGINNIGNTCYLNSLLQYYFSIAPLRRYVLEYQKTVENFNDHLSNSGHIRRIGGREISRGEVERSIQFIYQLRNLFYAMVHTRERCVTPSKELAYLAFAPSNVEVEFEVEGNKVVDQTGVLSDSKKETTDDAFTTKIKDTSLIDLEMEDGLNGDVGTDANRKKNESNDAEVSENEDTTGLTSPTRVAKISSDQLENALEMGRQQDVTECIGNVLFQIESGSEPIRYDEDNEQYDLVKQLFYGTTKQSIVPLSATNKVRTKVERFLSLLINIGDHPKDIYDAFDSYFKDEYLTMEEYGDVIRTVAVTTFPTILQVQIQRVYYDRERLMPFKSIEPLPFKEVIYMDRYADTENPLLLAKKKETEEMKQKLKVMKNRQRELLSRDDSGLTRKDAFLESIKLLESDTIKKTPLKIEAANDVIKTLRNNVQNIDNELMKLYNDINSLEEKISHQFDDFKEYGYSLFSVFIHRGEASYGHYWIYIKDRNRNGIWRKYNDETISEVQEEEVFNFNEGNTATPYFLVYVKQGQEGDIEPLKRILK

target: GST-Ub52 fusion protein [GST: P08515]
Sequence (P08515 whole entry, looked up, the tested form may be a part): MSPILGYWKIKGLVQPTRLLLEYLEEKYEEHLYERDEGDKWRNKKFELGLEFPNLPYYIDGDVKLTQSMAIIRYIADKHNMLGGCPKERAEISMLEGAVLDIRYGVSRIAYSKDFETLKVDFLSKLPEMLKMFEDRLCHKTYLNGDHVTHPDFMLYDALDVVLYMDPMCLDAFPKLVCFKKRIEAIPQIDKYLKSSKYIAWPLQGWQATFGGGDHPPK

Protein | USP activity: cleavage of GST-Ub52 on co-expression in E. coli, SDS-PAGE with Coomassie staining
B1 | the amount of the GST-Ub52 protein of 45 kDa decreased, and the proteolysis product of 30 kDa markedly increased along with it
B2 | The activity of synUSP disappeared by either replacing Cys98 with Ala
B3 | The GST-Ub52 protein was degraded to a band of 30 kDa by the co-expression of yeast USP2
